What follows are substances tested against wasl_bovin WASL (UniProt Q95107).
Chain of wasl_bovin WASL (Q95107 whole entry): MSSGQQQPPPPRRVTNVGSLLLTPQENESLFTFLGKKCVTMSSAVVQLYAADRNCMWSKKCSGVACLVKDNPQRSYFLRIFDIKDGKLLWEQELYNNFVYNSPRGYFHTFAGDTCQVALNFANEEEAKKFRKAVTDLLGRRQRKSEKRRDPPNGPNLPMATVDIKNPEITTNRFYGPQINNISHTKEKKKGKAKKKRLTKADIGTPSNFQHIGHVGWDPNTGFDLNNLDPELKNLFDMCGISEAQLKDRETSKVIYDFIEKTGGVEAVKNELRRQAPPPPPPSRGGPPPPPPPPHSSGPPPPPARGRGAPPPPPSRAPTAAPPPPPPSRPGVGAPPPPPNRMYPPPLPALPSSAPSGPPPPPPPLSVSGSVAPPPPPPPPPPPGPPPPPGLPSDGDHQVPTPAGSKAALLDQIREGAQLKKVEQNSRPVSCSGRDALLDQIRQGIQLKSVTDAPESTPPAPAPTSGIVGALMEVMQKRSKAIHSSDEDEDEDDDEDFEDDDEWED

Chain of Src substrate cortactin (Mus musculus), Q60598 S405D;S418D (Q60598 whole entry S405D/S418D): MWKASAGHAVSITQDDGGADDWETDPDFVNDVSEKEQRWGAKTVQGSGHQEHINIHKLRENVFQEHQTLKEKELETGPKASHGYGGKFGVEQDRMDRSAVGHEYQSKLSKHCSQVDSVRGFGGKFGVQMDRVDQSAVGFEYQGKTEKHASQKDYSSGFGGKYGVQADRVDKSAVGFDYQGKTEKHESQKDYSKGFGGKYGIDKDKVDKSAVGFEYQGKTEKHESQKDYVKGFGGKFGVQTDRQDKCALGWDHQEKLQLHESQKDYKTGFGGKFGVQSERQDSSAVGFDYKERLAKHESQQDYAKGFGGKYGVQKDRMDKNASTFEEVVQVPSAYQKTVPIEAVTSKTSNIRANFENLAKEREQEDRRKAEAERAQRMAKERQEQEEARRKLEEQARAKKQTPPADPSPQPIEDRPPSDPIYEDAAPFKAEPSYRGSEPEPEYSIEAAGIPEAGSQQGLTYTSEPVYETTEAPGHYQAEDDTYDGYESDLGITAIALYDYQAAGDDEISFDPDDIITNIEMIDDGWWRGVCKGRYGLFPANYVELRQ
Chain of Src substrate cortactin (Mus musculus), Q60598 W525K (Q60598 whole entry W525K): as the sequence (Q60598 whole entry S405D/S418D) above, with D405S, D418S, W525K counted along it
Chain of Src substrate cortactin (Mus musculus), Q60598 Y466D;Y482D (Q60598 whole entry Y466D/Y482D): as the sequence (Q60598 whole entry S405D/S418D) above, with D405S, D418S, Y466D, Y482D counted along it
Chain of Src substrate cortactin (Mus musculus), Q60598 S405D;P416D;Y466D;Y482D (Q60598 whole entry S405D/P416D/Y466D/Y482D): as the sequence (Q60598 whole entry S405D/S418D) above, with P416D, D418S, Y466D, Y482D counted along it

Substance | effect of a mutation on the interaction
Src substrate cortactin (Mus musculus), Q60598 W525K | disrupting interaction
Src substrate cortactin (Mus musculus), Q60598 Y466D;Y482D | decreasing interaction
Src substrate cortactin (Mus musculus), Q60598 S405D;S418D | increasing interaction
Src substrate cortactin (Mus musculus), Q60598 S405D;P416D;Y466D;Y482D | decreasing interaction
